Source: publication PMC10793706, “Genetically engineered IgG1 and nanobody oligomers acquire strong intrinsic CD40 agonism” (Bioengineered, 2024)

B1: ADC-1013-IgG1 (antibody, V domains shown)
VH: EVQLLESGGGLVQPGGSLRLSCAASGFTFSTYGMHWVRQAPGKGLEWLSYISGGSSYIFYADSVRGRFTISRDNSENALYLQMNSLRAEDTAVYYCARILRGGSGMDLWGQGTLVTVSS
VL: QSVLTQPPSASGTPGQRVTISCTGSSSNIGAGYNVYWYQQLPGTAPKLLIYGNINRPSGVPDRFSGSKSGTSASLAISGLRSEDEADYYCAAWDKSISGLVFGGGTKLTVL
notes: constant region of the IgG1 heavy chain; IgG1; also called Mitazalimab; source: HEK293T, transfected, cell culture supernatant
B2: APX005M-IgG1 (antibody, V domains shown)
VH: QSLEESGGDLVKPGASLTLTCTASGFSFSSTYVCWVRQAPGKGLEWIACIYTGDGTNYSASWAKGRFTISKPSSTTVTLQMTSLTPADTATYFCARPDITYGFAINFWGPGTLVTVSS
VL: DIVMTQTPSSASEPVGGTVTIKCQASQSISSRLAWYQQKPGQPPKLLIYRASTLASGVPSRFKGSGSGTEFTLTISDLECADAATYYCQCTGYGISWPIGGGTEVVVK
notes: VH of APX005M; constant region of the IgG1 heavy chain; IgG1; also called Sotigalimab; anti-CD40(APX); source: HEK293T, transfected, cell culture supernatant
B3: G28.5-IgG1 (antibody, V domains shown)
VH: DIQLQQSGPGLVKPSQSLSLTCSVTGYSITTNYNWNWIRQFPGNKLEWMGYIRYDGTSEYTPSLKNRVSITRDTSMNQFFLRLTSVTPEDTATYYCARLDYWGQGTLVTVSS
VL: DIVMTQNPLSLPVSLGDEASISCRSSQSLENSNGNTFLNWFFQKPGQSPQLLIYRVSNRFSGVPDRFSGSGSGTDFTLKISRVEAEDLGVYFCLQVTHVPYTFGGGTTLEIK
notes: VH of G28.5; constant region of the IgG1 heavy chain; IgG1; source: HEK293T, transfected, cell culture supernatant

Assays:
[1] = target: human CD40 expressed on HT1080-CD40 transfectants (human) (UniProt P25942)
Sequence of human CD40 expressed on HT1080-CD40 transfectants (human) (P25942 21-277): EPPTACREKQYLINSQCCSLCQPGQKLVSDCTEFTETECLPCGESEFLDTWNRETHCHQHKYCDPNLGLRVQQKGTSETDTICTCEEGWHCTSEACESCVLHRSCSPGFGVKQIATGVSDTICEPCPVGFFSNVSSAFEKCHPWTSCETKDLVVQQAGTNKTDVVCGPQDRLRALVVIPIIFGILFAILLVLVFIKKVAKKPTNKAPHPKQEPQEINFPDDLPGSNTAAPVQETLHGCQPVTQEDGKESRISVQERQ

[2] = target: T1, CD40-GpL, the CD40 ectodomain with a C-terminal Gaussia princeps luciferase (GpL) reporter domain (Homo sapiens, UniProt P25942); assay: plate binding assay with Gaussia luciferase (GpL) fusion proteins; plates coated with 1 µg/ml protein G, loaded with anti-CD40 antibodies (1 µg/ml, in medium); GpL-linked CD40 ectodomain and its deletion mutants added for 1 hour at 37°C; TNFR2(ed)-GpL values subtracted as unspecific binding; settings: partners not purified
T1 construct: extracellular domain of CD40 with its cysteine-rich domains (CRDs); also called CD40(ed)-GpL; source: HEK293T, transfected, cell culture supernatant; not shown: Gaussia princeps luciferase (GpL), C-terminal, kept
T1 sequence (P25942 21-193): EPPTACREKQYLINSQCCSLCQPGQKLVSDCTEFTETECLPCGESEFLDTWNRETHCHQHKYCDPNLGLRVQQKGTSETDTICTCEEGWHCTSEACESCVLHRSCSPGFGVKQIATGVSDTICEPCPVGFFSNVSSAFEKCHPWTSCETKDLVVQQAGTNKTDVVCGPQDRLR

| Molecule | p100 processing and TRAF1 induction (western blot) in U2OS cells; concentration from which the response starts [1] [ng/mL] | binding result [2] |
| --- | --- | --- |
| APX005M-IgG1 (N297A-RGY) (antibody) | < 100 | – |
| B1 | – | binds |
| B2 | – | binds |
| B3 | – | binds |
